In the experiment the target is Human PD-1 expressed on CHO-K1 cells (CHO-K1/hPD-1) (human) (UniProt Q15116). Nature of the experiment: FACS, CHO-K1/hPD-1 cells. In general terms: A flow cytometer gives signals particle by particle.
Human PD-1 expressed on CHO-K1 cells (CHO-K1/hPD-1) (human), sequence (Q15116 25-288): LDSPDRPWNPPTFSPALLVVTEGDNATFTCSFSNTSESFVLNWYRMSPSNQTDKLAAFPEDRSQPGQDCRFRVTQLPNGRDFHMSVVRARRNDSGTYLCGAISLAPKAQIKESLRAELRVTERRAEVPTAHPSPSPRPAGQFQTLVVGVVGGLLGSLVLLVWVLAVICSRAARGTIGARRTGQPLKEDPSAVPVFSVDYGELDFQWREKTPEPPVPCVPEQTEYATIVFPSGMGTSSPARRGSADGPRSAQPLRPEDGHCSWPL

The substance hIgG1 (antibody) registered a Maximum (MFI) of 49300.
